Laboratory results published in article PMC10980035 (bioRxiv, 2024).

How the values were obtained:
[1] = target: T1, Retriever complex (VPS35L, VPS26C, VPS29) (human, UniProt Q7Z3J2 1-963; O14972 1-297; Q9UBQ0-2 1-186); assay: pull-down
[2] = target: T1, Retriever complex (VPS35L, VPS26C, …); assay: pull-down; remark: listed apart in the source

T1 sequence (Q7Z3J2 whole entry, chain 1 of 2): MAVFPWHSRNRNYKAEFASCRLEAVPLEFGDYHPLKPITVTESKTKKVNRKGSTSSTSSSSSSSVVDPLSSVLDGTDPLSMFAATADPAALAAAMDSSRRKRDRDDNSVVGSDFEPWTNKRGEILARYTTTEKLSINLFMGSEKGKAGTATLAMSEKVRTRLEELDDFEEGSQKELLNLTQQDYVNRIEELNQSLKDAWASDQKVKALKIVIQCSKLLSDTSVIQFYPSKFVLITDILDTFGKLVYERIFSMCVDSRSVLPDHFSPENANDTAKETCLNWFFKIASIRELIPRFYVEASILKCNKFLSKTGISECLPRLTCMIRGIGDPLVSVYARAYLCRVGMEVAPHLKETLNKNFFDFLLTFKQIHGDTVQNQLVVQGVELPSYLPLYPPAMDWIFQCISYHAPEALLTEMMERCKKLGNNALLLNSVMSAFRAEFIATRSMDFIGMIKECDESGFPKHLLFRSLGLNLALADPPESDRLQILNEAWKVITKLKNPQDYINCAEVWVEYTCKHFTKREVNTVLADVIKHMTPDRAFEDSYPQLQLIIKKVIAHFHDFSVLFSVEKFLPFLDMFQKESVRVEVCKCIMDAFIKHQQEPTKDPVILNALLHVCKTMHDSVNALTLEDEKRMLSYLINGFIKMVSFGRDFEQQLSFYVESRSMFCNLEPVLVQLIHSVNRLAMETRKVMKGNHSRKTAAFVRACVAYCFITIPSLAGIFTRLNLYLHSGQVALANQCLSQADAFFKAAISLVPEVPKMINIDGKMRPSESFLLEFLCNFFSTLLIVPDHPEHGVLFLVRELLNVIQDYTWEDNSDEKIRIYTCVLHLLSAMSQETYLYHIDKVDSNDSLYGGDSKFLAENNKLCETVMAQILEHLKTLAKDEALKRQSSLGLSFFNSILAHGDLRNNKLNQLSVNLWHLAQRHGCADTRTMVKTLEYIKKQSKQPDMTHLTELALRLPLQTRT
T1 sequence (O14972 whole entry, chain 2 of 2): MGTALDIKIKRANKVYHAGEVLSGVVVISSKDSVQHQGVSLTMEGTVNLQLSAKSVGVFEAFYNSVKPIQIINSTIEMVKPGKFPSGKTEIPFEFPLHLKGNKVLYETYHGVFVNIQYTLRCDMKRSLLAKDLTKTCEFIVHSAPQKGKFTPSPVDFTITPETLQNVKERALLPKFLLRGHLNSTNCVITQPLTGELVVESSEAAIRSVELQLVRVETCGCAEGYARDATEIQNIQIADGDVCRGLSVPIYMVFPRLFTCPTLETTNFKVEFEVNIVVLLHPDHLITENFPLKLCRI

| Kd [1] | binding result [2] | Binder |
| --- | --- | --- |
| ~110 nM |  | ASASDVHGNFAFEGIGDEDL [GST-SNX17 CT (GST-tagged tail peptide, last 20 residues of SNX17)] |
|  | binds | SKIKIAKDDCVFGNIKEEDL [GST-tagged CT acidic tail of SNX31 (last 20 amino acids)] |
|  | binds | SVYLVNFRCCRSHDLCNEDL [GST-tagged CT acidic tail of PATE1 (last 20 amino acids)] |
